These results are taken from patent US20250145679A1 (WUXI BIOLOGICS IRELAND, published 2025).

Usually Kd stands for the free concentration of one partner at which half of the binding sites on the other are occupied at equilibrium, for simple one-to-one binding. A word on the koff: it is the rate constant with which the complex falls apart. Read a low koff as slow dissociation. In general, kon refers to a measure of how fast the partners come together. In general, EC50 refers to the concentration that produces a half-maximal response.

Experiment [1] deals with T1, IL-2/15Rβ (CD122) ECD (human, UniProt P14784 27-239).
T1 construct: The SPR text names the analyte only as 'W327151-hPro2.ECD.His'; also called Receptor β; IL-15Rβ
T1 sequence: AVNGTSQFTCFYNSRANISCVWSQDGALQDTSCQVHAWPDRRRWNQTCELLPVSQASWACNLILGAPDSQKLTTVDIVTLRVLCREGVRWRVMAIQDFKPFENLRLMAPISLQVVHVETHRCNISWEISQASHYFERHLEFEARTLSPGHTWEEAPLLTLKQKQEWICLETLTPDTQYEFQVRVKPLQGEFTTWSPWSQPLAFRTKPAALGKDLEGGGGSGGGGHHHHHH
The experiment is described as follows: SPR, Biacore 8K, complex captured on anti-human Fc CM5 chip, receptor ECD-His injected. As for the experimental part:
IL-15 variants binding affinity to its receptor were detected by SPR using Biacore 8K. Each variant was captured on anti-human Fc immobilized CM5 sensor chip (cytiva). W327151-hPro2.ECD.His at different concentrations were injected over the sensor chip at a flow rate of 30 uL/min for an association phase of 120 s, followed by 120 s dissociation. The chip was then regenerated by 10 mM Glycine-HCl pH 1.5 after each binding cycle.
On the technique in general: Surface plasmon resonance follows binding to a sensor surface in real time, without labels.

The target of experiment [2] is T2, human lymphoma (HH) cell line (human).
T2 construct: Cells, not a defined protein
Briefly: binding to HH cells, dose-dependent (FIG. 5); receptor on the cells not named.

B1: W327151-TXU1.P1-V0013.uIgG4V322 (Fc fusion)
chain 1: NWVNVISDLKKIEDLIQSMHIDATLYTESDVHPSCKVTAMKCFLLELQVISLESGDASIHDTVENLIILANNSLSSNGNVTESGCKECEELEEKNIKEFLQSFVHIVQMFESKYGPPCPPCPAPEAAGGPSVFLFPPKPKDTLMISRTPEVTCVVVDVSQEDPEVQFNWYVDGVEVHNAKTKPREEQFNSTYRVVSVLTVLHQDWLNGKEYKCKVSNKGLPSSIEKTISKAKGQPREPQVYTLPPCQEEMTKNQVSLWCLVKGFYPSDIAVEWESNGQPENNYKTTPPVLDSDGSFFLYSRLTVDKSRWQEGNVFSCSVMHEALHNHYTQKSLSLSLGK
chain 2: ITCPPPMSVEHADIWVKSYSLYSRERYICNSGFKRKAGTSSLTECVLNKATNVAHWTTPSLKCIRESKYGPPCPPCPAPEAAGGPSVFLFPPKPKDTLMISRTPEVTCVVVDVSQEDPEVQFNWYVDGVEVHNAKTKPREEQFNSTYRVVSVLTVLHQDWLNGKEYKCKVSNKGLPSSIEKTISKAKGQPREPQVCTLPPSQEEMTKNQVSLSCAVKGFYPSDIAVEWESNGQPENNYKTTPPVLDSDGSFFLVSRLTVDKSRWQEGNVFSCSVMHEALHNHYTQKSLSLSLGK
notes: Heterodimeric IL-15/IL-15Ralpha-Fc polypeptide complex; IgG4 Fc with S228P and F234A/L235A, knob-into-hole
In experiment [1], B1 registered a Kd of 7.9 nM, a koff of 0.00483 s⁻¹ and a kon of 612000 M⁻¹ s⁻¹. In experiment [2], this molecule had an EC50 of 91.9 nM.
